Experimental data published in patent US8357523B2, “Beta-glucosidase variant enzymes and related polynucleotides” (Codexis, Inc., priority 2009, dated 2013).

experiment: High throughput cellobiose assay: fold improvement in cellobiase activity of CelA variants over a control enzyme (Tables 2A-2D, 3, 5, 6, 7); assay type: biochemical; conditions: 3.3 g/l cellobiose, 55° C. and pH 5.3 (incubation overnight)

Molecule | Fold improvement over Control Variant No. 94 from Table 2B
216 (protein) STAIAQEGAAPAATLHPEKWPRPATQRLIDPAVEKRVDALLKQLSVEEKVGQVIQGDIGTITPEDLRKYPLGSILAGGDSGPNGDDRAPPKEWLDLADAFYRVSLEKRPGHTPIPVLFGIDAVHGHGNIGSATIFPHNIALGMTRDPELLRRIGEVTAEEMAATGIDWTFAPALSVVRDDRWGRTYEGFSEDPEIVASYSAAIVEGVQGKYGSKDFMAPGRIVASAKHFLADGGTDQGRDQGDARISEDELIRIHNAGYPPAIDAGVLTVMASFSSWQGIKHHGHKQLLTDVLKGQMGFNGFIVGDWNAHDQVPGCTKFNCPTSLIAGLDMYMAADSWKQLYENTLAQVKDGTIPMARLDDAVRRILRVKVLAGLFEKPAPKDRPGLPGLETLGSPEHRAVGREAVRKSLVLLKNDKGTLPLSPKARVLVAGDGADNIGKQSGGWTISWQGTGNRNDEFPGATSILGGIRDAVADAGGSVEFDVAGQYKTKPDVAIVVFGEEPYAEFQGDVETLEYQPDQKQDLALLKKLKDQGIPVVAVFLSGRPMWVNPELNASDAFVAAWLPGTEGGGVADVLFTDKAGKVQHDFAGKLSYSWPRTAAQTTVNRGDADYNPLFAYGYGLTYKDKSKVGTLPEESGVP | ++++ (++++ = 1.1 to 1.5 fold improvement over Control No. 3, Variant No. 94)
217 (protein) STAIAQEGASPAAILHPEKWPRPATQRLIDPAVEKRVDALLKQLSVEEKVGQVIQGDIGTITPEDLRKYPLGSILAGGDSGPNGDDRAPPKEWLDLADAFYRVSLEKRPGHTPIPVLFGIDAVHGHGNIGSATIFPHNIALGMTRDPELLRRIGEVTAEEMAATGIDWTFAPALSVVRDDRWGRTYEGFSEDPEIVASYSAAIVEGVQGKYGSKDFMAPGRIVASAKHFLADGGTDQGRDQGDARISEDELIRIHNAGYPPAIDAGVLTVMASFSSWQGIKHHGHKQLLTDVLKGQMGFNGFIVGDWNAHDQVPGCTKFNCPTSLIAGLDMYMAADSWKQLYENTLAQVKDGTIPMARLDDAVRRILRVKVLAGLFEKPAPKDRPGLPGLETLGSPEHRAVGREAVRKSLVLLKNDKGTLPLSPKARVLVAGDGADNIGKQSGGWTISWQGTGNRNDEFPGATSILGGIRDAVADAGGSVEFDVAGQYKTKPDVAIVVFGEEPYAEFQGDVETLEYQPDQKQDLALLKKLKDQGIPVVAVFLSGRPMWVNPELNASDAFVAAWLPGTEGGGVADVLFTDKAGKVQHDFAGKLSYSWPRTAAQTTVNRGDADYNPLFAYGYGLTYKDKSKVGTLPEESGVP | ++++ (++++ = 1.1 to 1.5 fold improvement over Control No. 3, Variant No. 94)
222 (protein) STAITQEGAAPAAILHPEKWPRPATQRLIDPAVEKRVDALLKQLSVEEKVGQVIQGDIGTITPEDLRKYPLGSILAGGDSGPNGDDRAPPKEWLDLADAFYRVSLEKRPGHTPIPVLFGIDAVHGHGNIGSATIFPHNIALGMTRDPELLRRIGEVTAEEMAATGIDWTFAPALSVVRDDRWGRTYEGFSEDPEIVASYSAAIVEGVQGKYGSKDFMAPGRIVASAKHFLADGGTDQGRDQGDARISEDELIRIHNAGYPPAIDAGVLTVMASFSSWQGIKHHGHKQLLTDVLKGQMGFNGFIVGDWNAHDQVPGCTKFNCPTSLIAGLDMYMAADSWKQLYENTLAQVKDGTIPMARLDDAVRRILRVKVLAGLFEKPAPKDRPGLPGLETLGSPEHRAVGREAVRKSLVLLKNDKGTLPLSPKARVLVAGDGADNIGKQSGGWTISWQGTGNRNDEFPGATSILGGIRDAVADAGGSVEFDVAGQYKTKPDVAIVVFGEEPYAEFQGDVETLEYQPDQKQDLALLKKLKDQGIPVVAVFLSGRPMWVNPELNASDAFVAAWLPGTEGGGVADVLFTDKAGKVQHDFAGKLSYSWPRTAAQTTVNRGDADYNPLFAYGYGLTYKDKSKVGTLPEESGVP | ++++ (++++ = 1.1 to 1.5 fold improvement over Control No. 3, Variant No. 94)

same assay, conditions: 3.3 g/l cellobiose, 65° C. and pH 5 (incubation overnight); relative to Control #5, Variant No. 366 (SEQ ID NO: 9)

Molecule | Fold Improvement over Control Variant
428 (protein, truncated; signal peptide F-10T) SAAITQEGAAPAAMLHPEKWPRPATQRLIDPAVEKRVDALLKQLSVEEKVGQVIQGDIGTITPEDLRKYPLGSILAGGDSGPNGDDRAPPKEWLDLADAFYRVSLEKRPGHTPIPVLFGIDAVHGHNNIGSATIFPHNIALGMTRDPELLRRIGEVTAEEMAATGIDWTFAPALSVPRDDRWGRTYEGFSEDPEIVASYSAAIVEGFQGKYGSKDFMAPGRAVACAKHFLADGGTDQGRDQGDARISEDELIRIHNAGYPPAIDAGVLTVMASFSSWQGIKHHGHKQLLTDVLKGQMGFNGFIVGDWNAHDQVPGCTKFNCPTSLIAGLDMYMAADSWKQLYENTLAQVKDGTIPMARLDDAVRRILRVKVLAGLFEKPAPKDRPGLPGLETLGSPEHRTVGREAVRKSLVLLKNDKGTLPLSPKARVLVAGDGADNIGKQSGGWTISWQGTGNRNDEFPGATSILGGIRDAVADAGGSVEFDVAGQYKTKPDVAIVVFGEEPYAEFQGDVETLEYQPDQKQDLTLLKKLKDQGIPVVAVFLSGRPMWVNPELNASDAFVAAWLPGTEGGGVADVLFTDKAGKVQHDFAGKLSYSWPRTAAQTTVNRGDADYNPLFAYGYGLTYKDKSKVGTLPEESGVPAEARQNAGIYFRAGALRLPGRFL | ++ (++ = 1.1 to 2.0 fold improvement over control Variant No. 366)
432 (protein, truncated; signal peptide F-10T, I-14V) SARITQEGAAPAAMLHPEKWPRPATQRLIDPAVEKRVDALLKQLSVEEKVGQVIQGDIGTITPEDLRKYPLGSILAGGDSGPNGDDRAPPKEWLDLADAFYRVSLEKRPGHTPIPVLFGIDAVHGHNNIGSATIFPHNIALGMTRDTELLRRIGEVTAEEMAATGIDWTFAPALSVPRDDRWGRTYEGFSEDPEIVASYSAAYVEGFQGKYGSKDFMAPGRAVACAKHFLADGGTDQGRDQGDARISEDELIRIHNAGYPPAIDAGVLTVMASFSSWQGIKHHGHKQLLTDVLKGQMGFNGFIVGDWNAHDQVPGCTKFNCPTSLIAGLDMYMAADSWKQLYENTLAQVKDGTIPMARLDDAVRRILRVKVLAGLFEKPAPKDRPGLPGLETLGSPEHRAVGREAVRKSLVLLKNDKGTLPLSPKARVLVAGDGADNIGKQSGGWTISWQGTGNRNDEFPGATSILGGIRDAVADAGGSVEFDVAGQYKTKPDVAIVVFGENPYAEFRGDVETLEYQPDQKQDLTLLKKLKDQGIPVVAVFLSGRPMWVNPELNASDAFVAAWLPGTEGGGVADVLFTDKAGKVQYDFAGKLSYSWPRTAAQTTVNRGDADYNPLFAYGYGLTYKDKSKVGTLPEESGVPAEARQNAGIYFRAGALRLPGRFL | ++ (++ = 1.1 to 2.0 fold improvement over control Variant No. 366)
430 (protein, truncated; signal peptide F-10T) SAAITQEGAAPAAMLHPEKWPRPATQRLIDPAVEKRVDALLKQLSVEEKVGQVIQGDIGTITPEDLRKYPLGSILAGGDSGPNGDDRAPPKEWLDLADAFYRVSLEKRDGHTPIPVLFGIDAVHGHNNIGSATIFPHNIALGMTRDPELLRRIGEVTAEEMAATGIDWTFAPALSVPRDDRWGRTYEGFSEDPEIVASYSAAIVEGFQGKYGSKDFMAPGRAVACAKHFLADGGTDQGRDQGDARISEDELIRIHNAGYPPAIDAGVLTVMASFSSWQGIKHHGHKQLLTDVLKGQMGFNGFIVGDWNAHDQVPGCTKFNCPTSLIAGLDMYMAADSWKQLYENTLAQVKDGTIPMARLDDAVRRILRVKVLAGLFEKPAPKDRPGLPGLETLGSPEHRAVGREAVRKSLVLLKNDKGTLPLSPKARVLVAGDGADNIGKQSGGWTISWQGTGNRNDEFPGATSILGGIRDAVADAGGSVEFDVAGQYKTKPDVAIVVFGEEPYAEFRGDVETLEYQPDQKQDLTLLKKLKDQGIPVVAVFLSGRPMWVNPELNASDAFVAAWLPGTEGGGVADVLFTDKAGKVQHDFAGKLSYSWPRTAAQTTVNRGDADYNPLFAYGYGLTYKDKSKVGTLPEESGVPAEARQNAGIYFRAGALRLPGRFL | ++ (++ = 1.1 to 2.0 fold improvement over control Variant No. 366)
429 (protein, truncated; signal peptide F-10T) SAAITQEGAAPAPMLHPEKWPRPATQRLIDPAVEKRVDALLKQLSVEEKVGQVIQGDIGTITPEDLRKYPLGSILAGGDSGPNGDDRAPPKEWLDLADAFYRVSLEKRPGHTPIPVLFGIDAVHGHNNIGSATIFPHNIALGMTRDTELLRRIGEVTAEEMAATGIDWTFAPALSVVRDDRWGRTYEGFSEDPEIVASYSAAYVEGFQGKYGSKDFMAPGRAVACAKHFLADGGTDQGRDQGDARISEDELIRIHNAGYPPAIDAGVLTVMASFSSWQGIKHHGHKQLLTDVLKGQMGFNGFIVGDWNAHDQVPGCTKFNCPTSLIAGLDMYMAADSWKQLYENTLAQVKDGTIPMARLDDAVRRILRVKVLAGLFEKPAPKDRPGLPGLETLGSPEHRAVGREAVRKSLVLLKNDKGTLPLSPKARVLVAGDGADNIGKQSGGWTISWQGTGNRNDEFPGATSILGGIRDAVADAGGSVEFDVAGQYKTKPDVAIVVFGEEPYAEFRGDVETLEYQPDQKQDLTLLKKLKDQGIPVVAVFLSGRPMWVNPELNASDAFVAAWLPGTEGGGVADVLFTDKAGKVQYDFAGKLSYSWPRTAAQTTVNRGDADYNPLFAYGYGLTYKDKSKVGTLPEESGVPAEARQNAGIYFRAGALRLPGRFL | ++ (++ = 1.1 to 2.0 fold improvement over control Variant No. 366)
431 (protein, truncated; signal peptide F-10T) SAAITQEGAAPAPMLHPEKWPRPATQRLIDPAVEKRVDALLKQLSVEEKVGQVIQGDIGTITPEDLRKYPLGSILAGGDSGPNGDDRAPPKEWLDLADAFYRVSLEKRDGHTPIPVLFGIDAVHGHNNIGSATIFPHNIALGMTRDPELLRRIGEVTAEEMAATGIDWTFAPALSVPRDDRWGRTYEGFSEDPEIVASYSAAIVEGFQGKYGSKDFMAPGRAVACAKHFLADGGTDQGRDQGDARISEDELIRIHNAGYPPAIDAGVLTVMASFSSWQGIKHHGHKQLLTDVLKGQMGFNGFIVGDWNAHDQVPGCTKFNCPTSLIAGLDMYMAADSWKQLYENTLAQVKDGTIPMARLDDAVRRILRVKVLAGLFEKPAPKDRPGLPGLETLGSPEHRAVGREAVRKSLVLLKNDKGTLPLSPKARVLVAGDGADNIGKQSGGWTISWQGTGNRNDEFPGATSILGGIRDAVADAGGSVEFDVAGQYKTKPDVAIVVFGEEPYAEFRGDVETLEYQPDQKQDLSLLKKLKDQGIPVVAVFLSGRPMWVNPELNASDAFVAAWLPGTEGGGVADVLFTDKAGKVQHDFAGKLSYSWPRTAAQTTVNRGDADYNPLFAYGYGLTYKDKSKVGTLPEESGVPAEARQNAGIYFRAGALRLPGRFL | ++ (++ = 1.1 to 2.0 fold improvement over control Variant No. 366)
